Article PMC12182893, “Dimeric DNA Aptamers for the Spike Protein of SARS‐CoV‐2 Derived from a Structured Library with Dual Random Domains”
Read-outs that look alike come from different tables or passages of the source.

How the values were obtained:
[1] = molecular target: alpha-thrombin (human, UniProt P00734;P00734 328-363;364-622); assay: dot blot (filter binding)
[2] = molecular target: SARS-CoV-1 spike protein (SARS-CoV-1, UniProt P59594 14-1195); assay: dot blot (filter binding); conditions: protein: recombinant; chain copies: 3; label: radiolabel (32P)
[3] = molecular target: Influenza hemagglutinin (HA) (influenza A/California/04/2009 (CAL 09), UniProt C3W5S1 18-530); assay: dot blot (filter binding); conditions: protein: recombinant; chain copies: 3; label: radiolabel (32P)
[4] = molecular target: 229E RBD (seasonal coronavirus 229E, UniProt P15423 293-435); assay: dot blot (filter binding); 10 nM protein; conditions: protein: recombinant; label: radiolabel (32P); 3-way junction, predicted
[5] = molecular target: HKU1 RBD (seasonal coronavirus HKU1, UniProt Q5MQD0 325-607); assay: dot blot (filter binding); 10 nM protein; conditions: protein: recombinant; label: radiolabel (32P); 3-way junction, predicted
[6] = molecular target: NL63 RBD (seasonal coronavirus NL63, UniProt Q6Q1S2 481-616); assay: dot blot (filter binding); 10 nM protein; conditions: protein: recombinant; label: radiolabel (32P); 3-way junction, predicted
[7] = molecular target: OC43 RBD (seasonal coronavirus OC43, UniProt P36334 333-607); assay: dot blot (filter binding); 10 nM protein; conditions: protein: recombinant; label: radiolabel (32P); 3-way junction, predicted
[8] = molecular target: alpha-thrombin (human, UniProt P00734;P00734 328-363;364-622); conditions: protein: commercial; copies: 1;1; label: radiolabel (32P); 3-way junction, predicted

Measured: binding result

B1: DRDA10 (structured_DNA)
DNA: TTACGTCAAGGTGTCACTCCTGTGGGTGGAATGGGGAAGGGAGTGTTTTTTTTTTCGGAGATGTGTGTGTGAAACAGTGGGAAGCATCTCTTTGGCGTG
no binding: [1]

B2: DRDA8 (structured_DNA)
DNA: TTACGTCAAGGTGTCACTCCTGTGGGTGGAATGGGGAAGGGAGTGTTTTTTTTTGTGAGATGTGTGGTGTGGAATGGGGAAGCATCTCTTTGGCGTG
not listed: [1]
no binding: all other assays above
